PMC3643581

Molecular target: rPTB4 (pQE-PTB4) (UniProt P26599 1-557)
Test: UV cross-linking

rPTB4 (pQE-PTB4), sequence (P26599 whole entry): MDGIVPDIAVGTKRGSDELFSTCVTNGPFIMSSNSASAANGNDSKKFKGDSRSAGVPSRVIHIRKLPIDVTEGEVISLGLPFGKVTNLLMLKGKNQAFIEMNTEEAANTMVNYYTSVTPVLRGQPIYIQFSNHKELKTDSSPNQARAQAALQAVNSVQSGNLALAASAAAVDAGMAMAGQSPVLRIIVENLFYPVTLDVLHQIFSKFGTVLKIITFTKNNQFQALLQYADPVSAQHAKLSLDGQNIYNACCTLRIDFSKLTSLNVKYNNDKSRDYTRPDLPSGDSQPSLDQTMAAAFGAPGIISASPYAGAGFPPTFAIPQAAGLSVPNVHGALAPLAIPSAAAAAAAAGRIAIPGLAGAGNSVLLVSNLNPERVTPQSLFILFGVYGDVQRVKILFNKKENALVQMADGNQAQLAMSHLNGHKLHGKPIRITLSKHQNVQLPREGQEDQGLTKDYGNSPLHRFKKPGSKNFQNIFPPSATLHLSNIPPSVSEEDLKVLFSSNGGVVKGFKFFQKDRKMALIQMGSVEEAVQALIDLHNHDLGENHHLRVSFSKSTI

B1: MBNL SELEX RNA D12 (ssRNA)
RNA: GGGAGACAAGCUCCUCCUGCGCUCUUUGCUUGCCCUGCUGUGUCGAAUU
binding result: no binding
